Results as given in patent publication US20090280480A1.

Key:
[1] = target: NM, the N-terminal and middle region of Saccharomyces cerevisiae Sup35 (soluble, unpolymerized) (Saccharomyces cerevisiae) (UniProt P05453); test: cell-based or functional assay
[2] = target: Rnq1 preformed fibers (sonicated seed) (Saccharomyces cerevisiae) (UniProt P25367); test: cell-based or functional assay
[3] = target: biotinylated NM^K184C seed (fibers) (Saccharomyces cerevisiae) (UniProt P05453); test: capture of biotinylated seed (50% w/w) on Streptavidin-coated Dynabeads, SDS wash, scintillation counting
biotinylated NM^K184C seed (fibers) (Saccharomyces cerevisiae), sequence (P05453 1-253 K184C): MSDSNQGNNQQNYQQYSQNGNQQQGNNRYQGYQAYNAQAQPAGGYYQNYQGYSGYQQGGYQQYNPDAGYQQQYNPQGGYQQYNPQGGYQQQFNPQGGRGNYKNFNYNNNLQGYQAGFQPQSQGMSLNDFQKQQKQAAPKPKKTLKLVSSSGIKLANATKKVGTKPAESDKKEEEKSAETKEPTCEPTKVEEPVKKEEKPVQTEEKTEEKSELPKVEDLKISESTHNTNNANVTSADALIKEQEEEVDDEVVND

Question: With “Hsp104 (yeast protein-remodeling factor, AAA+ family), His-tag removed (from UniProt P31539 1-908) (enzyme)” as the substance, how does the inhibition of NM fibrillization, no nucleotide [1] read?
Answer: 7.6 µM

Question: And the inhibition of NM fibrillization, with ADP [1]?
Answer: 3.1 µM

Question: And the inhibition of NM fibrillization, with AMP-PNP [1]?
Answer: 0.2 µM

Question: What about the inhibition of NM fibrillization, with ATP hydrolysis [1] of the same substance?
Answer: 0.1 µM

Question: Which lag time of Thioflavin T fluorescence with 2% preformed fibers [2] does the source give for “Rnq1 (purified recombinant, soluble) (from UniProt P25367 1-405)” here?
Answer: 4.3 h

Question: Which fraction of seed-bound NM soluble in SDS at early time points [3] does the source give for “soluble NM^T158C-iodo[1-14C]acetamide (from UniProt P05453 1-253)” here?
Answer: 50%
